Residue numbers refer to the chain shown, from its start. Names and notes keep the numbering of the source.
B1: OSE-172 (antibody, from another filing, V domains shown)
VH: EVQLVQSGAEVKKPGESLRISCKASGYSFTSYWVHWVRQMPGKGLEWMGNIDPSDSDTHYSPSFQGHVTLSVDKSISTAYLQLSSLKASDTAMYYCVRGGTGTLAYFAYWGQGTLVTVSS
VL: DVVMTQSPLSLPVTLGQPASISCRSSQSLVHSYGNTYLYWFQQRPGQSPRLLIYRVSNRFSGVPDRFSGSGSGTDFTLKISRVEAEDVGVYYCFQGTHVPYTFGGGTKVEIKR
B2: 8H- IgG4 S228P (antibody, V domains shown)
VH: EVQLVESGGGLVQPGGSLRLSCAASGFSFSSSDYMCWVRQAPGKGLEWVGCINSGSDTTSYATWAKGRFTISRDNAKNTLYLQMNSLRAEDTAVYYCARGYGSAGANGYVIGMKYLNLWGQGTLVTVSS
VL: DIQMTQSPSSLSASVGDRVTITCQASQSIGSNLAWYQQKPGKAPKLLIYTASTLESGVPSRFSGSGSGTDFTLTISSLQPEDFATYYCQCTYGSSSSGYPFGGGTKVEIK
B3: 14H2B-IgG4 S228P (antibody, V domains shown)
VH: EVQLVESGGGLVQPGGSLRLSCAASGIDLSSYSMIWVRQAPGKGLEWIGIIYTGGSTDYASWAKGRFTISRDNSKNTLYLQMNSLRAEDTAVYYCARENSHDTFDPWGQGTLVTVSS
VL: DIQMTQSPSSLSASVGDRVTITCQSSQSVYTNYQSWYQQKPGKAPKLLIYAASTLASGVPSRFSGSGSGTDFTLTISSLQPEDFATYYCLGSYVSSGWYYAFGGGTKVEIK
B4: 44H-IgG4 S228P (antibody, V domains shown)
VH: B3 VH with I27F, D28S, I48V, G55S, T57A, D58S
VL: B3 VL with Q34L
B5: 4H- IgG4 S228P (antibody, V domains shown)
VH: EVQLVESGGGLVQPGGSLRLSCAASGFSFSSYYFMCWVRQAPGKGLEWVACIDAGYSGGSHYASWAKGRFTISRDNSKNTLYLQMNSLRAEDTAVYYCARAYEYGYGGYDLWGQGTLVTVSS
VL: DIQMTQSPSSLSASVGDRVTITCQASQSIDSNLAWYQQKPGKAPKLLIYRASGLESGVPSRFSGSGSGTDFTLTISSLQPEDFATYYCQCTYGSNDSGNYANAFGGGTKVEIK
B6: 4E10-IgG4 S228P (antibody, V domains shown)
VH: EVQLVESGGGLVQPGGSLRLSCAASGFSLSNYEMIWVRQAPGKGLEWVGIIYVSRSTHYASWAKGRFTISRDNSKNTLYLQMNSLRAEDTAVYYCGRYLASGGFNIWGQGTLVTVSS
VL: DIQMTQSPSTLSASVGDRVTITCQASHNIYSNLAWYQQKPGKAPKLLIYDASKLASGVPSRFSGSGSGTEFTLTISSLQPDDFATYYCQSYYGNSYPFGGGTKVEIK
B7: 89H-IgG4 S228P (antibody, V domains shown)
VH: EVQLVESGGGLVQPGGSLRLSCAASGFSLSTYAMIWVRQAPGKGLEWVGIISPSGTTYYATWAKGRFTISRDNSKNTLYLQMNSLRAEDTAVYYCARAGSGGWDYFNIWGQGTLVTVSS
VL: DIQMTQSPSSLSASVGDRVTITCQASQSISSYLSWYQQKPGKAPKLLIYYASNLASGVPSRFSGSGSGTDFTLTISSLQPEDFATYYCQSYYYSNNYNWAFGGGTKVEIK

Biological target: human SIRPα expressed on the surface of human monocyte-derived dendritic cells (human) (UniProt P78324)
Sequence (P78324 31-504): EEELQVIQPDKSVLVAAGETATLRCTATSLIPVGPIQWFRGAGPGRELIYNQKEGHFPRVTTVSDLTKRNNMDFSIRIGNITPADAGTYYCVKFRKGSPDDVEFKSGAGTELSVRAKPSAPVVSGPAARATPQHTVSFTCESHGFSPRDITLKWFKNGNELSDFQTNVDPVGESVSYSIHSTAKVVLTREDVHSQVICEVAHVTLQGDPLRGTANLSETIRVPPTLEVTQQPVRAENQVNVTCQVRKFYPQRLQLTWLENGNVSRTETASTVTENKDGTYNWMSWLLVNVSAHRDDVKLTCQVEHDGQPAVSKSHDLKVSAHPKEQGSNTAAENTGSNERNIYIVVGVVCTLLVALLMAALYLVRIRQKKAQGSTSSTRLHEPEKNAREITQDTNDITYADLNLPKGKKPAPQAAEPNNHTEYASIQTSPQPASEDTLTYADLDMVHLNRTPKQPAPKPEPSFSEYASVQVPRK
Assay: flow cytometry on human monocyte-derived dendritic cells

| Kd | Binder |
| --- | --- |
| 0.572 nM | B1 |
| 1.66 nM | B2 |
| 0.686 nM | B3 |
| 0.672 nM | B4 |
| 0.0881 nM | B5 |
| 0.264 nM | B6 |
| 0.378 nM | B7 |

Biological target: human SIRPα expressed on the surface of human monocyte-derived dendritic cells (human) (UniProt P78324)
Assay: flow cytometry, mDC surface binding, donor/experiment 4

| Kd | Binder |
| --- | --- |
| 1.33 nM | B3 |
| 0.908 nM | B7 |

Biological target: human SIRPα expressed on the surface of human monocyte-derived dendritic cells (human) (UniProt P78324)
Assay: flow cytometry, mDC surface binding, donor/experiment 1

| Kd | Binder |
| --- | --- |
| 1.48 nM | B3 |
| 1.04 nM | B7 |

Biological target: human SIRPα expressed on the surface of human monocyte-derived dendritic cells (human) (UniProt P78324)
Assay: flow cytometry, mDC surface binding, donor/experiment 2

| Kd | Binder |
| --- | --- |
| 0.953 nM | B3 |
| 0.923 nM | B7 |

Biological target: human SIRPα expressed on the surface of human monocyte-derived dendritic cells (human) (UniProt P78324)
Assay: flow cytometry, mDC surface binding, donor/experiment 3

| Kd | Binder |
| --- | --- |
| 0.99 nM | B3 |
| 0.881 nM | B7 |

From US20230340112A1
